Results taken from the RNAGym collection of RNA variant scans (doi:10.7554/elife.80360).

B1: CPEB3 Ribozyme (parent)
chain: GGGGGCCACAGCAGAAGCGUUCACGUCGCGGCCCCUGUCAGAUUCUGGUGAAUCUGCGAAUUCUGCUGU

Variants of: B1
Test: self-cleavage, relative activity (ratio to wild type); higher = more cleavage; co-transcriptional

Variant | self-cleavage
GGGGGCCACAGCAGAAGCGUUCACGUCGCGGCCCCUGUCAGAUUCUGAGGAAUCUGCGAAUUCUGCUGU | 1.01
GGGGGCCACAGCAGAAGCGUUCACGUCGCGGCCCCUGUCAGAUUCUGACGAAUCUGCGAAUUCUGCUGU | 0.959
GGGGGCCACAGCAGAAGCGUUCACGUCGCGGCCCCUGUCAGAUUCUGUUGAAUCUGAGAAUUCUGCUGU | 0.316
GGGGGCCACAGCAGAAGCGUUCACGUCGCGGCCCCUGUCAGAUUCUGAUGAAUCUGCGAAUUCUGCUCU | 0.98
GGGGGCCACAGCAGAAGCGUUCACGUCGCGGCCCCUGUCAGAUUCUGCUGAAUUUGCGAAUUCUGCUGU | 1.04
GGGGGCCACAGCAGAAGCGUUCACGUCGCGGCCCCUGUCAGAUUCUGUUGAAUCUGCGACUUCUGCUGU | 0.362
GGGGGCCACAGCAGAAGCGUUCACGUCGCGGCCCCUGUCAGAUUCUGUUGAAUCUGCGAGUUCUGCUGU | 0.979
GGGGGCCACAGCAGAAGCGUUCACGUCGCGGCCCCUGUCAGAUUCUGUUGAAUCUGCGCAUUCUGCUGU | 0.739
GGGGGCCACAGCAGAAGCGUUCACGUCGCGGCCCCUGUCAGAUUCUGUUGAAUCUGCGUAUUCUGCUGU | 0.881
GGGGGCCACAGCAGAAGCGUUCACGUCGCGGCCCCUGUCAGAUUCUGCUGACUCUGCGAAUUCUGCUGU | 0.994
GGGGGCCACAGCAGAAGCGUUCACGUCGCGGCCCCUGUCAGAUUCUGCUGAUUCUGCGAAUUCUGCUGU | 0.971
GGGGGCCACAGCAGAAGCGUUCACGUCGCGGCCCCUGUCAGAUUCUGCUGAGUCUGCGAAUUCUGCUGU | 1.04
GGGGGCCACAGCAGAAGCGUUCACGUCGCGGCCCCUGUCAGAUUCUGCUGAAUCUGCGACUUCUGCUGU | 0.239
GGGGGCCACAGCAGAAGCGUUCACGUCGCGGCCCCUGUCAGAUUCUGCUGAAUCUGCGAUUUCUGCUGU | 0.552
GGGGGCCACAGCAGAAGCGUUCACGUCGCGGCCCCUGUCAGAUUCUGCUGAAUCUGCGAAUUCUGCUGC | 1.06
GGGGGCCACAGCAGAAGCGUUCACGUCGCGGCCCCUGUCAGAUUCUGAUGAAUCUGCGAAUUCUGCCGU | 0.958
GGGGGCCACAGCAGAAGCGUUCACGUCGCGGCCCCUGUCAGAUUCUGAUGAAUCUGCGAAUUCUGCGGU | 1.06
GGGGGCCACAGCAGAAGCGUUCACGUCGCGGCCCCUGUCAGAUUCUGAUGAAUCUGCGAAUUCUGCAGU | 1.01
GGGGGCCACAGCAGAAGCGUUCACGUCGCGGCCCCUGUCAGAUUCUGUUGAAUCUGCGAAUUCUGAUGU | 0.923
GGGGGCCACAGCAGAAGCGUUCACGUCGCGGCCCCUGUCAGAUUCUGUUGAAUCUGCGAAUUCUGUUGU | 0.978
GGGGGCCACAGCAGAAGCGUUCACGUCGCGGCCCCUGUCAGAUUCUGCUGAAUCUGGGAAUUCUGCUGU | 0.285
GGGGGCCACAGCAGAAGCGUUCACGUCGCGGCCCCUGUCAGAUUCUGCUGAAUCUGAGAAUUCUGCUGU | 0.309
GGGGGCCACAGCAGAAGCGUUCACGUCGCGGCCCCUGUCAGAUUCUGCUGAAUCUGCGAAUUUUGCUGU | 0.981
GGGGGCCACAGCAGAAGCGUUCACGUCGCGGCCCCUGUCAGAUUCUGCUGAAUCUGCGAAUUAUGCUGU | 0.931
GGGGGCCACAGCAGAAGCGUUCACGUCGCGGCCCCUGUCAGAUUCUGCUGAAUCUGCGAAUUCUGCCGU | 0.998
GGGGGCCACAGCAGAAGCGUUCACGUCGCGGCCCCUGUCAGAUUCUGCUGAAUCUGCGAAUUCUGCGGU | 1.04

Variant | self-cleavage
GGGGGCCACAGCAGAAGCGUUCACGUCGCGGCCCCUGUCAGAUUCUGCUGAAUCUGCGAAUUCUGCAGU | 1.01
GGGGGCCACAGCAGAAGCGUUCACGUCGCGGCCCCUGUCAGAUUCUGAUGAAUCUGCGAAUCCUGCUGU | 0.952
GGGGGCCACAGCAGAAGCGUUCACGUCGCGGCCCCUGUCAGAUUCUGAUGAAUCUGCGAAUGCUGCUGU | 0.868
GGGGGCCACAGCAGAAGCGUUCACGUCGCGGCCCCUGUCAGAUUCUGCUGAAUCUACGAAUUCUGCUGU | 0.988
GGGGGCCACAGCAGAAGCGUUCACGUCGCGGCCCCUGUCAGAUUCUGCUGAAUCUCCGAAUUCUGCUGU | 0.778
GGGGGCCACAGCAGAAGCGUUCACGUCGCGGCCCCUGUCAGAUUCUGCUGAAUCUGCGAAUUCUGCUAU | 0.971
GGGGGCCACAGCAGAAGCGUUCACGUCGCGGCCCCUGUCAGAUUCUGCUGGAUCUGCGAAUUCUGCUGU | 0.995
GGGGGCCACAGCAGAAGCGUUCACGUCGCGGCCCCUGUCAGAUUCUGAUGAAUCUGCGAAUUCUGCUGC | 1.06
GGGGGCCACAGCAGAAGCGUUCACGUCGCGGCCCCUGUCAGAUUCUGAUGAAUCUGCGAAUUCUGCUGA | 1.02
GGGGGCCACAGCAGAAGCGUUCACGUCGCGGCCCCUGUCAGAUUCUGCUGAACCUGCGAAUUCUGCUGU | 0.96
GGGGGCCACAGCAGAAGCGUUCACGUCGCGGCCCCUGUCAGAUUCUGCUGAAGCUGCGAAUUCUGCUGU | 0.913
GGGGGCCACAGCAGAAGCGUUCACGUCGCGGCCCCUGUCAGAUUCUGCUGAAUCUGCGAAUUCCGCUGU | 0.938
GGGGGCCACAGCAGAAGCGUUCACGUCGCGGCCCCUGUCAGAUUCUGCUGAAUCUGCGAAUUCUACUGU | 0.926
GGGGGCCACAGCAGAAGCGUUCACGUCGCGGCCCCUGUCAGAUUCUGCUGAAUCUGCGAAUUCUUCUGU | 0.869
GGGGGCCACAGCAGAAGCGUUCACGUCGCGGCCCCUGUCAGAUUCUGCUGAAUCUGCGAAUUCUCCUGU | 0.775
GGGGGCCACAGCAGAAGCGUUCACGUCGCGGCCCCUGUCAGAUUCUGCAGAAUCUGCGAAUUCUGCUGU | 0.976
GGGGGCCACAGCAGAAGCGUUCACGUCGCGGCCCCUGUCAGAUUCUGCGGAAUCUGCGAAUUCUGCUGU | 1.06
GGGGGCCACAGCAGAAGCGUUCACGUCGCGGCCCCUGUCAGAUUCUGCCGAAUCUGCGAAUUCUGCUGU | 0.993
GGGGGCCACAGCAGAAGCGUUCACGUCGCGGCCCCUGUCAGAUUCUGAUGAAUCUGCGAAUUCGGCUGU | 0.902
GGGGGCCACAGCAGAAGCGUUCACGUCGCGGCCCCUGUCAGAUUCUGAUGAAUCUGCGAAUUCAGCUGU | 0.946
GGGGGCCACAGCAGAAGCGUUCACGUCGCGGCCCCUGUCAGAUUCUGAUGAAUCUGCGAAUUCCGCUGU | 1
GGGGGCCACAGCAGAAGCGUUCACGUCGCGGCCCCUGUCAGAUUCUGAUGAAUCUGCGAACUCUGCUGU | 0.852
GGGGGCCACAGCAGAAGCGUUCACGUCGCGGCCCCUGUCAGAUUCUGAUGAAUCUGCGAAAUCUGCUGU | 0.957
GGGGGCCACAGCAGAAGCGUUCACGUCGCGGCCCCUGUCAGAUUCUGAUGAAUCUGCGAAGUCUGCUGU | 0.919
GGGGGCCACAGCAGAAGCGUUCACGUCGCGGCCCCUGUCAGAUUCUGUUGCAUCUGCGAAUUCUGCUGU | 0.978
GGGGGCCACAGCAGAAGCGUUCACGUCGCGGCCCCUGUCAGAUUCUGUUGGAUCUGCGAAUUCUGCUGU | 0.959

Variant | self-cleavage
GGGGGCCACAGCAGAAGCGUUCACGUCGCGGCCCCUGUCAGAUUCUGUUGUAUCUGCGAAUUCUGCUGU | 1
GGGGGCCACAGCAGAAGCGUUCACGUCGCGGCCCCUGUCAGAUUCUGCUGAAUCUGCGAAUUCUGCUGU | 0.999
GGGGGCCACAGCAGAAGCGUUCACGUCGCGGCCCCUGUCAGAUUCUGUUGAAUCUGCGAAUUCUGCUGU | 0.999
GGGGGCCACAGCAGAAGCGUUCACGUCGCGGCCCCUGUCAGAUUCUGCUUAAUCUGCGAAUUCUGCUGU | 1.01
GGGGGCCACAGCAGAAGCGUUCACGUCGCGGCCCCUGUCAGAUUCUGCUCAAUCUGCGAAUUCUGCUGU | 0.944
GGGGGCCACAGCAGAAGCGUUCACGUCGCGGCCCCUGUCAGAUUCUGCUAAAUCUGCGAAUUCUGCUGU | 1.01
GGGGGCCACAGCAGAAGCGUUCACGUCGCGGCCCCUGUCAGAUUCUGAUGAAUCUGCGAAUUCUUCUGU | 0.914
GGGGGCCACAGCAGAAGCGUUCACGUCGCGGCCCCUGUCAGAUUCUGAUGAAUCCGCGAAUUCUGCUGU | 0.949
GGGGGCCACAGCAGAAGCGUUCACGUCGCGGCCCCUGUCAGAUUCUGAUGAAUCGGCGAAUUCUGCUGU | 0.993
GGGGGCCACAGCAGAAGCGUUCACGUCGCGGCCCCUGUCAGAUUCUGCUGAAUCUGCGAACUCUGCUGU | 0.866
GGGGGCCACAGCAGAAGCGUUCACGUCGCGGCCCCUGUCAGAUUCUGCUGAAUCUGCGAAGUCUGCUGU | 0.907
GGGGGCCACAGCAGAAGCGUUCACGUCGCGGCCCCUGUCAGAUUCUGCUGAAUCUGCGGAUUCUGCUGU | 0.989
GGGGGCCACAGCAGAAGCGUUCACGUCGCGGCCCCUGUCAGAUUCUGCUGAAUCUGCGCAUUCUGCUGU | 0.797
GGGGGCCACAGCAGAAGCGUUCACGUCGCGGCCCCUGUCAGAUUCUGUUGAAUGUGCGAAUUCUGCUGU | 1.03
GGGGGCCACAGCAGAAGCGUUCACGUCGCGGCCCCUGUCAGAUUCUGUUGAAUCUGCGAAUUUUGCUGU | 1.03
GGGGGCCACAGCAGAAGCGUUCACGUCGCGGCCCCUGUCAGAUUCUGUUGAAUCUGCGAAUUAUGCUGU | 0.956
GGGGGCCACAGCAGAAGCGUUCACGUCGCGGCCCCUGUCAGAUUCUGUUGAAUCUGCGAAUUGUGCUGU | 0.878
GGGGGCCACAGCAGAAGCGUUCACGUCGCGGCCCCUGUCAGAUUCUGCUGAAUCUGCGAAUUCUGAUGU | 0.91
GGGGGCCACAGCAGAAGCGUUCACGUCGCGGCCCCUGUCAGAUUCUGCUGAAUCUGCGAAUUCUGGUGU | 0.934
GGGGGCCACAGCAGAAGCGUUCACGUCGCGGCCCCUGUCAGAUUCUGCUGAAUCUGCGAAUGCUGCUGU | 0.913
GGGGGCCACAGCAGAAGCGUUCACGUCGCGGCCCCUGUCAGAUUCUGUUGAGUCUGCGAAUUCUGCUGU | 0.983
GGGGGCCACAGCAGAAGCGUUCACGUCGCGGCCCCUGUCAGAUUCUGUUGAUUCUGCGAAUUCUGCUGU | 0.969
GGGGGCCACAGCAGAAGCGUUCACGUCGCGGCCCCUGUCAGAUUCUGUUGACUCUGCGAAUUCUGCUGU | 0.987
GGGGGCCACAGCAGAAGCGUUCACGUCGCGGCCCCUGUCAGAUUCUGCUGAAUCAGCGAAUUCUGCUGU | 1
GGGGGCCACAGCAGAAGCGUUCACGUCGCGGCCCCUGUCAGAUUCUGCUGAAUCUGCAAAUUCUGCUGU | 0.917
GGGGGCCACAGCAGAAGCGUUCACGUCGCGGCCCCUGUCAGAUUCUGCUGAAUCUGCCAAUUCUGCUGU | 0.974
